This note sets out measurements from patent US20050123549A1.

Experiment [1] concerns the target Muc1 mucin carrying the CA6 sialoglycotope (human) (UniProt P15941). Nature of the experiment: flow cytometry on KB cells. (A flow cytometer gives signals particle by particle.)
The target in experiment [2] is Muc1 on DS6 negative & CM1 positive cell lines (KLE, OVCAR3, SKOV3), without the CA6 epitope (human) (UniProt P15941). Briefly: flow cytometry on KLE cells.
Experiment [3] concerns the target Muc1 mucin carrying the CA6 sialoglycotope (human) (UniProt P15941). Briefly: flow cytometry on HeLa cells.
The target is the same in experiment [4]. Nature of the experiment: flow cytometry on MCF7 cells.
For experiment [5] the target is unchanged. Nature of the experiment: flow cytometry on BT549 cells.
Experiment [6] has the same target. Nature of the experiment: flow cytometry on CaOV3 cells.
Experiment [7] has as its target Muc1 on DS6 negative & CM1 positive cell lines (KLE, OVCAR3, SKOV3), without the CA6 epitope (human) (UniProt P15941). Briefly: flow cytometry on SKOV3 cells.
Experiment [8] shares this target. Nature of the experiment: flow cytometry on OVCAR3 cells.
Experiment [9] concerns the target Muc1 mucin carrying the CA6 sialoglycotope (human) (UniProt P15941). Nature of the experiment: flow cytometry on KB cells, apparent Kd.
Experiment [10] deals with Muc1 on DS6 negative & CM1 positive cell lines (KLE, OVCAR3, SKOV3), without the CA6 epitope (human) (UniProt P15941). Briefly: flow cytometry on KLE cells, apparent Kd.
For experiment [11], the target named is Muc1 mucin carrying the CA6 sialoglycotope (human) (UniProt P15941). Briefly: flow cytometry on HeLa cells, apparent Kd.
Experiment [12] has the same target. Nature of the experiment: flow cytometry on MCF7 cells, apparent Kd.
Experiment [13] has the same target. Briefly: flow cytometry on BT549 cells, apparent Kd.
Experiment [14] shares this target. Nature of the experiment: flow cytometry on CaOV3 cells, apparent Kd.
In experiment [15] the target is Muc1 on DS6 negative & CM1 positive cell lines (KLE, OVCAR3, SKOV3), without the CA6 epitope (human) (UniProt P15941). Nature of the experiment: flow cytometry on SKOV3 cells, apparent Kd.
For experiment [16] the target is unchanged. Briefly: flow cytometry on OVCAR3 cells, apparent Kd.

Turning to CM1 antibody (Muc1 VNTR antibody), the MMF (maximum mean relative fluorescence) in experiment [1] was found to be 338; in [2], 562; in [3], 335; in [4], 1020; in experiment [5], 188; in experiment [6], 1030. For the same substance, the MMF (maximum mean relative fluorescence) in experiment [7] stood at 49.4; in [8], 192. Further, the Kd in experiment [9] was found to be 5.34 nM; in experiment [10] it was 8.16 nM; in [11], 2.91 nM; in experiment [12] it was 8.69 nM; in [13], 6.06 nM; in experiment [14], 7.48 nM. Moreover, the Kd came out at 6.25 nM in experiment [15] and 5.95 nM in experiment [16].
